According to patent US20120135923A1 (IPSEN PHARMA S A S, published 2012):
Bridge positions count the residues as written; N and C are the ends. Square brackets hold non-standard residues; d marks the D form. Ends that are not written are not given here. 2Nal = N[C@@H](Cc1ccc2ccccc2c1)C(=O)O; Cha = N[C@@H](CC1CCCCC1)C(=O)O; Pen = CC(C)(S)[C@H](N)C(=O)O; Nle = CCCC[C@H](N)C(=O)O; Ahx = NCCCCCC(=O)O; Ava = NCCCCC(=O)O; GABA = NCCCC(=O)O

What was measured:
hMC1-R [1] = molecular target: T1, hMC1-R (human, UniProt Q01726 1-317); assay: ratio Ki hMC1-R / Ki hMC4-R, same assay
T1 construct: whole, on cells; Assayed as membranes of CHO-K1 cells expressing the receptor; also called hMC-R receptor subtype 1; melanocyte-specific receptor (MC1-R)
T1 sequence (Q01726 whole entry): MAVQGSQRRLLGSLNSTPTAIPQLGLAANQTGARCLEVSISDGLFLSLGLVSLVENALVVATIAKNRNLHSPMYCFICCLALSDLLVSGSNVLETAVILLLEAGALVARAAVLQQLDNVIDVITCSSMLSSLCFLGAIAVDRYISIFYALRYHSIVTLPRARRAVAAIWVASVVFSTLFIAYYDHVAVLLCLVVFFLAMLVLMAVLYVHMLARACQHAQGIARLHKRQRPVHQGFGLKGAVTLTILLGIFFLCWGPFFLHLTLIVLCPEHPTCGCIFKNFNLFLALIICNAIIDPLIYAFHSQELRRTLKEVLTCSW
Method: Cellular membranes used for the in vitro receptor binding assays were obtained from transgenic CHO-K1 cells stably expressing hMC-R receptor subtypes 1, 3, 4 or 5. […] The pellets were resuspended in the same buffer and centrifuged at 50,000 g for 10 minutes at approximately 4° C. The washed pellets containing the cellular membranes were stored at approximately −80° C.
Competitive inhibition of [¹²⁵I](Tyr²)-(Nle⁴-D-Phe⁷)α-MSH ([¹²⁵I]-NDP-α-MSH, Amersham Biosciences®) binding was carried out in polypropylene 96 well plates. Cell membranes (1-10 μg protein/well) prepared as described above were incubated in 50 mM Tris-HCl at pH 7.4 containing 0.2% bovine serum albumin (BSA), 5 mM MgCl₂, 1 mM CaCl₂ and 0.1 mg/mL bacitracin, with increasing concentrations of the test compound and 0.1-0.3 nM […] for approximately 90-120 minutes at approximately 37° C. Bound [¹²⁵I]-NDP-α-MSH ligand was separated from free [¹²⁵I]-NDP-α-MSH by filtration through GF/C glass fiber filter plates (Unifilter®; Packard) presoaked with 0.1% (w/v) polyethylenimine (PEI), using a Packard Filtermate® harvester. Filters were washed three times with 50 mM Tris-HCl at pH 7.4 at a temperature of approximately 0-4° C. and then assayed for radioactivity using a Packard Topcount® scintillation counter. Binding data were analyzed by computer-assisted non-linear regression analysis (XL fit; IDBS).

hMC1-R [2] = molecular target: T1, hMC1-R; assay: competition with [125I]-NDP-α-MSH, CHO-K1 membranes
hMC3-R = molecular target: T2, hMC3-R (human, UniProt P41968 1-323); assay: as above
T2 construct: whole, on cells; Assayed as membranes of CHO-K1 cells expressing the receptor; also called hMC-R receptor subtype 3; melacortin-3 (MC3-R)
T2 sequence (P41968 whole entry): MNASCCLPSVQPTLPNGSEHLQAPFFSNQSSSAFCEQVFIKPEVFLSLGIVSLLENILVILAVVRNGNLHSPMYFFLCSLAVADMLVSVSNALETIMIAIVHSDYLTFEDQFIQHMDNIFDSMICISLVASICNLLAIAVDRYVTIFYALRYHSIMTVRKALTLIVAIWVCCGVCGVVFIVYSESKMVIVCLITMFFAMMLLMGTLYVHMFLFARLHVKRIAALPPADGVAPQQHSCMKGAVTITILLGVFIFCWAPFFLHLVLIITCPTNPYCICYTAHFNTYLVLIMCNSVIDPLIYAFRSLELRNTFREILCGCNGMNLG

hMC4-R = molecular target: T3, hMC4-R (human, UniProt P32245 1-332); assay: as above
T3 construct: whole, on cells; Assayed as membranes of CHO-K1 cells expressing the receptor; also called hMC-R receptor subtype 4; melanocortin-4 (MC4-R)
T3 sequence (P32245 whole entry): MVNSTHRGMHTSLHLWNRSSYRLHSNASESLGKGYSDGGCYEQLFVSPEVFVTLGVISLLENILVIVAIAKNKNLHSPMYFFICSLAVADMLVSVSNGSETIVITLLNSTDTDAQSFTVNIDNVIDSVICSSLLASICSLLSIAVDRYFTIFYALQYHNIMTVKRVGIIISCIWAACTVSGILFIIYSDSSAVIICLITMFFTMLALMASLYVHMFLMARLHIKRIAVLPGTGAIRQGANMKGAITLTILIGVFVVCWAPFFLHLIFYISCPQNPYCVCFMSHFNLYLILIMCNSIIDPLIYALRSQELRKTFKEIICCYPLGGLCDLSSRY

hMC5-R = molecular target: T4, hMC5-R (human, UniProt P33032 1-325); assay: as above
T4 construct: whole, on cells; Assayed as membranes of CHO-K1 cells expressing the receptor; also called hMC-R receptor subtype 5; melanocortin-5 receptor (MC5-R)
T4 sequence (P33032 whole entry): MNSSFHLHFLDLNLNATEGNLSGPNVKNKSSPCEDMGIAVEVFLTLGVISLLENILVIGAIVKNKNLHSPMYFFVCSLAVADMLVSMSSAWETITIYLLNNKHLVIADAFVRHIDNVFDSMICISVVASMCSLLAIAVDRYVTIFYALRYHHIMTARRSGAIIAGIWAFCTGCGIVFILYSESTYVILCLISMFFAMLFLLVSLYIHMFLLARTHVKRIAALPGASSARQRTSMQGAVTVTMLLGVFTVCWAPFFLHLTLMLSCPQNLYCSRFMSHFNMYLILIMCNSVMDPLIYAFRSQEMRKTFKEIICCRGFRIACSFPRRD

Binder	Ki hMC1-R/MC4-R (hMC1-R [1])	Ki (hMC1-R [2]) [nM]	Ki (hMC3-R) [nM]	Ki (hMC4-R) [nM]	Ki (hMC5-R) [nM]
Ac-[Nle]C[dL]H[dF]RWC-NH2 (disulfide 2-8; SMILES CCCC[C@H](NC(C)=O)C(=O)N[C@H]1CSSC[C@@H](C(N)=O)NC(=O)[C@H](Cc2c[nH]c3ccccc23)NC(=O)[C@H](CCCNC(=N)N)NC(=O)[C@@H](Cc2ccccc2)NC(=O)[C@H](Cc2c[nH]cn2)NC(=O)[C@@H](CC(C)C)NC1=O) [Ac-Nle-c(Cys-D-Leu-His-D-Phe-Arg-Trp-Cys)-NH2]	0.39	1.6	6.82	4.13	5.57
Ac-ICH[dF]RW[GABA]C-NH2 (disulfide 2-8; SMILES CC[C@H](C)[C@H](NC(C)=O)C(=O)N[C@H]1CSSC[C@@H](C(N)=O)NC(=O)CCCNC(=O)[C@H](Cc2c[nH]c3ccccc23)NC(=O)[C@H](CCCNC(=N)N)NC(=O)[C@@H](Cc2ccccc2)NC(=O)[C@H](Cc2c[nH]cn2)NC1=O) [Ac-Ile-c(Cys-His-D-Phe-Arg-Trp-Gaba-Cys)-NH2]	0.14	0.148	13.9	1.06	0.423
Ac-LCH[dF]RW[GABA]C-NH2 (disulfide 2-8) [Ac-Leu-c(Cys-His-D-Phe-Arg-Trp-Gaba-Cys)-NH2]	0.22	0.216	17.4	0.995	0.486
Ac-VCH[dF]RW[GABA]C-NH2 (disulfide 2-8; SMILES CC(=O)N[C@H](C(=O)N[C@H]1CSSC[C@@H](C(N)=O)NC(=O)CCCNC(=O)[C@H](Cc2c[nH]c3ccccc23)NC(=O)[C@H](CCCNC(=N)N)NC(=O)[C@@H](Cc2ccccc2)NC(=O)[C@H](Cc2c[nH]cn2)NC1=O)C(C)C) [Ac-Val-c(Cys-His-D-Phe-Arg-Trp-Gaba-Cys)-NH2]	0.13	0.256	29.9	1.98	0.864
Ac-[Nle][Pen]H[dF]RW[GABA][Pen]-NH2 (disulfide 2-8) [Ac-Nle-c(Pen-His-D-Phe-Arg-Trp-Gaba-Pen)-NH2]	0.21	0.744	178	3.51	2.69
Ac-[2Nal]CH[dF]RW[GABA]C-NH2 (disulfide 2-8) [Ac-2-Nal-c(Cys-His-D-Phe-Arg-Trp-Gaba-Cys)-NH2]	0.19	0.56	39.2	2.94	2.73
Ac-[Nle]CHFR[dW][GABA]C-NH2 (disulfide 2-8, Phe 4 is the L form here) [Ac-Nle-c(Cys-His-Phe-Arg-D-Trp-Gaba-Cys)-NH2]	0.04	5.2	150	138	20.3

Now those with a lower Ki (hMC1-R [2]), led by results:

Ki hMC1-R/MC4-R (hMC1-R [1])	Ki (hMC1-R [2]) [nM]	Ki (hMC3-R) [nM]	Ki (hMC4-R) [nM]	Ki (hMC5-R) [nM]	Binder
0.1	0.07	4.1	0.85	8.8	[Nle]CH[dF]RW[Ava]C-NH2 (disulfide 2-8; N-terminus assumed; SMILES CCCC[C@H](N)C(=O)N[C@H]1CSSC[C@@H](C(N)=O)NC(=O)CCCCNC(=O)[C@H](Cc2c[nH]c3ccccc23)NC(=O)[C@H](CCCNC(=N)N)NC(=O)[C@@H](Cc2ccccc2)NC(=O)[C@H](Cc2c[nH]cn2)NC1=O) [Nle-c(Cys-His-D-Phe-Arg-Trp-Apn-Cys)-NH2]
0.11	0.0132	16.1	1.23	0.359	Ac-[Nle]CH[dF]RW[Ahx]C-NH2 (disulfide 2-8) [Ac-Nle-c(Cys-His-D-Phe-Arg-Trp-Ahx-Cys)-NH2]
0.3	0.12	10	0.43	0.42	Ac-[Nle]CH[dF]RW[GABA][Pen]-NH2 (disulfide 2-8) [Ac-Nle-c(Cys-His-D-Phe-Arg-Trp-Gaba-Pen)-NH2]
0.12	0.107	9.11	0.884	0.354	Ac-[Cha]CH[dF]RW[GABA]C-NH2 (disulfide 2-8) [Ac-Cha-c(Cys-His-D-Phe-Arg-Trp-Gaba-Cys)-NH2]
0.1	0.05	1.3	0.47	0.2	[Nle]CH[dF]RW[GABA]C-NH2 (disulfide 2-8) [Nle-c(Cys-His-D-Phe-Arg-Trp-Gaba-Cys)-NH2]
0.11	0.0951	9.33	0.894	13.4	Ac-[Nle]CH[dF]RW[Ava]C-NH2 (disulfide 2-8; SMILES CCCC[C@H](NC(C)=O)C(=O)N[C@H]1CSSC[C@@H](C(N)=O)NC(=O)CCCCNC(=O)[C@H](Cc2c[nH]c3ccccc23)NC(=O)[C@H](CCCNC(=N)N)NC(=O)[C@@H](Cc2ccccc2)NC(=O)[C@H](Cc2c[nH]cn2)NC1=O) [Ac-Nle-c(Cys-His-D-Phe-Arg-Trp-Apn-Cys)-NH2]
